Experimental findings from publication PMC8807876 are described below.

The target of this experiment is TopBP1 (UniProt Q92547). Kind of experiment: anti-GFP nanobody IP, TopBP1 immunoblot. The following applies: reference: wild type; sites T969,S1001.

For “Treslin/TICRR (from UniProt Q7Z2Z1) 2PM (T969A/S1001A)”, the “binding against the reference” value is reported as “lost”.
